Data as given in article PMC3688580, “Crystal Structure, SAXS and Kinetic Mechanism of Hyperthermophilic ADP-Dependent Glucokinase from Thermococcus litoralis Reveal a Conserved Mechanism for Catalysis” (PLoS ONE, 2013).

Substrate: Nc1ncnc2c1ncn2[C@@H]1O[C@H](COP(=O)(O)OP(=O)(O)O)[C@@H](O)[C@H]1O
Test: purified protein
Type: biochemical, Thermococcus litoralis
Conditions: co-substrate D-glucose varied, Mg2+ (constant free Mg2+), 25 mM Hepes pH 7.8, 40 °C, ordered Bi-Bi, first substrate

B1: TlGK (ADP-dependent glucokinase from Thermococcus litoralis) (Thermococcus litoralis DSM 5473) (protein)
chain: MKESLKDRIRLWKRLYVNAFENALNAIPNVKGVLLAYNTNIDAIKYLDKDDLEKRVTEIGKEKVFEIIENPPEKISSIEELLGGILRSIKLGKAMEWFVESEEVRRYLREWGWDELRIGGQAGIMANLLGGVYRIPTIVHVPQNPKLQAELFVDGPIYVPVFEGNKLKLVHPKDAIAEEEELIHYIYEFPRGFQVFDVQAPRENRFIANADDYNARVYMRREFREGFEEITRNVELAIISGLQVLKEYYPDGTTYRDVLDRVESHLNILNRYNVKSHFEFAYTANRRVREALVELLPKFTSVGLNEVELASIMEIIGDEELAKEVLEGHIFSVIDAMNVLMDETGIERIHFHTYGYYLALTQYRGEEVRDALLFASLAAAAKAMKGNLERIEQIRDALSVPTNERAIVLEEELEKEFTEFENGLIDMVDRQLAFVPTKIVASPKSTVGIGDTISSSAFVSEFGMRKR
notes: recombinant, purified from LB culture as in Merino et al. (heat shock, ammonium sulfate, two chromatographic steps); two-domain enzyme
B1 showed a Km of 8.6 µM.
